Data reported in the supplement of paper PMC9170038.

Test system: MS2 coat protein
Experiment: apparent KD of MS2 coat protein; designed switch direction (-1 OFF switch, 1 ON switch): -1; higher = weaker reporter binding
Outline: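 For each design, the apparent KD is the median over clusters of curves fitted to normalised cluster fluorescence. Clusters held RNA switches with common flanks, transcribed on Illumina chips by stalled E. coli RNA polymerase. These were titrated with SNAP-549-labelled MS2 coat protein, doubling from 0.7 or 1.5 nM to 3 µM, without input, with 200 uM small-molecule ligand, or with an oligonucleotide input.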

[1] = Eterna round: R95, input ligand: FMN 200 uM
[2] = Eterna round: R95, input ligand: microRNA oligo, concentration not stated
[3] = Eterna round: R95, input ligand: none
[4] = input ligand: microRNA oligo, concentration not stated

Row | Sequence | apparent KD of MS2 coat protein (input ligand: FMN 200 uM) [nM] | apparent KD of MS2 coat protein (input ligand: none) [nM] | apparent KD of MS2 coat protein [1] [nM] | apparent KD of MS2 coat protein [2] [nM] | apparent KD of MS2 coat protein [3] [nM] | apparent KD of MS2 coat protein [4] [nM]
1 | AAUAAUGUAGGAUAUACAUGAGGAUCACCCAUGUCCCACCCGUUACCUAUGACCAUAUGUAGAAGGACAAAUAA [Exy#4] (Eterna round: R97, puzzle: Exclusion 3) | 56.7 | 67.3 | – | – | – | –
2 | AAUAAUUUUUUUUUUUUACAAGCUUUUUGCUCGUCUUAUACAUGAGGAUCACCCAUGUGGGUGAAAGAUAGAUUGUC [JMF's solution 1] (puzzle: Sensor v3, turn-off variant 2) | – | – | 30.6 | 18.2 | 44.8 | –
3 | AAUACAAGCUAUUGAUCCCACAUGAGGAUCACCCAUGUAGCUGGCGGUGACACCUCCAUUACGAUAGCUCGUCUUAU [Sensor-V1 #56] (Eterna round: R97, puzzle: Sensor, turn-off variant 1) | 796 | 1670 | – | – | – | –
4 | AAUACAAGCUAUUGAUCCCACAUGAGGAUCACCCAUGUAGGUGGCCGUGAGACCACCUUUACGAUAGCUCGUCUUAU [Sensor-V1 #51] (Eterna round: R97, puzzle: Sensor, turn-off variant 1) | 277 | 274 | – | – | – | –
5 | AAUACACAUGAGGAUCACCCAUGUCAGGAUAUGCGGAAUAAGACUUUGGUCGAUAAAUGUAGAAGGGACGUUUA [Dr. RN-Ant/Googlypuddle] (puzzle: Exclusion 1) | – | – | – | 27.7 | – | –
6 | AAUACUAACACGAAAGUGUUAGUACAAUAAGCUUGUGGUACAUGAGGAUCACCCAUGUCCUCAUAAGCUCGUCUUAU [Mat - Sensor v3 - Turn-off var 2 - D41] (puzzle: Sensor v3, turn-off variant 2) | – | – | 24.3 | 74.5 | 21.9 | –
7 | AAUAGGACAGGAUAUCCGGAGUCGAACAUGAGGAUCACCCAUGUGAUGAGGAUGUUCGCUGGAGAAGGGUCGGGCU [Teonus] (puzzle: Exclusion 5) | – | – | 83.9 | 56.5 | 53.7 | –
8 | AAUAGUAAUAAGGAUAUCACUAGCUUCGGCUAGUGAGAAGGUAUUACAUGAGGAUCACCCAUGUGGUCAAUUAA [E6/4-A1] (Eterna round: R97, puzzle: Exclusion 6) | 360 | 922 | – | – | – | –
9 | AAUAGUCGGUAGGAUAUCCACGGAUGACCGGCAGGAGAAGGGCCGACUUGAGGAUCACCCAAGUAUGGUCCAAC [Ortiqumate] (Eterna round: R97, puzzle: Exclusion 6) | 25.1 | 13.9 | – | – | – | –
10 | AAUAUCGUAGGAUAUUAAUACUCAGACAUGAGGAUCACCCAUGUUUGGUGGGUCGGAGAAUGAGAAGGGCGAUGAA [EX5 #15] (Eterna round: R97, puzzle: Exclusion 5) | 86 | 54.7 | – | – | – | –
11 | AAUCCACAUGAGGAUCACCCAUGUGAGGAUAUGAUACUAUGUACUUCGGUACAUAGUAUCAGAAGGCACAUGAA [Ex1-3: 50] (puzzle: Exclusion 1) | – | – | 118 | 64.2 | 71.6 | –
12 | AAUCCUCUGCAGGAUAUCACUGGAUGAACCAGCUGAGAAGGGCGCACAUGAGGAUCACCCAUGUUGUAAGUAGC [Eternabot (L1) Solution 80] (Eterna round: R97, puzzle: Exclusion 6) | 132 | 51.7 | – | – | – | –
13 | AAUCUGCCGUAGGAUAUCUGAAGUUUAUAUAUAAGAGAAGGACGGACAUGAGGAUCACCCAUGUACGAUCCUGC [EX6 B.24] (Eterna round: R97, puzzle: Exclusion 6) | 19.9 | 11.5 | – | – | – | –
14 | AAUCUGUGAGGAUAUGGUGAGUAGUGCCUGAGCGCUGCUCACCAGAAGGCACAUGAGGAUCACCCAUGUAUGAC [Mat - Exclusion 4 - Mod of JL - D2] (puzzle: Exclusion 4) | – | – | – | 27.7 | – | –
15 | AAUGAGCGAGGAUAUGCAACUGUAUGACCUACGUGUGCCAGACAUGAGGAUCACCCAUGUAGAAGGUGCUUUCC [Israte] (Eterna round: R96, puzzle: Exclusion 2) | 59.9 | 57 | – | – | – | 45.3
16 | AAUGAGCGAGGAUAUGCAACUGUAUGACCUACGUGUGCCAGACAUGAGGAUCACCCAUGUAGAAGGUGCUUUCC [Israte] (puzzle: Exclusion 2) | – | – | – | 45.4 | – | –

Row | Sequence | apparent KD of MS2 coat protein (input ligand: FMN 200 uM) [nM] | apparent KD of MS2 coat protein (input ligand: none) [nM] | apparent KD of MS2 coat protein [1] [nM] | apparent KD of MS2 coat protein [2] [nM] | apparent KD of MS2 coat protein [3] [nM] | apparent KD of MS2 coat protein [4] [nM]
17 | AAUGAUGAUGUGAGGAUAUACAUAGUUAGACCGUAGUAGAAGGCACAUGAGGAUCACCCAUGUAGAUGUUAGGU [JR_BME4_Sub003] (puzzle: Brourd's mod of Exclusion 4) | – | – | 21.5 | 12.9 | 14.4 | –
18 | AAUGAUUGACGAGGAUAUUGUGGUAGAUCACGACGAGAAGGCGUAUGUCACAUGAGGAUCACCCAUGUGAGCUUUGUGGAUAGA [Ex NG1 #74] (Eterna round: R96, puzzle: Exclusion NG 1) | 27.1 | 20.7 | – | – | – | 16.1
19 | AAUGGCUGAGGAUAUACACUCACGUCUAAAAGGUUCAAAUGACAUGAGGAUCACCCAUGUAGAAGGCAGCCCGA [Regeor] (puzzle: Exclusion 2) | – | – | – | 98.4 | – | –
20 | AAUGUGUGAGGAUAUUAAUUGCAAGCGAAUAGGCUUGUGAUUGAGAAGGCACAUGAGGAUCACCCAUGUUCCAA [JR_Ex4_Sub083] (Eterna round: R97, puzzle: Exclusion 4) | 557 | 38.6 | – | – | – | –
21 | AAUUAGUCAGGAUAUACAUGAGGAUCACCCAUGUAAACUUUUAGUUUAAUUUGAAUGUGUAGAAGGGACAUUUA [Ex3 #47] (Eterna round: R97, puzzle: Exclusion 3) | 18.9 | 22.2 | – | – | – | –
22 | AAUUAUUGAUGAGGAUAUUGUGGUGAAACACCACAAGAAGGCAUUAUACACAUGAGGAUCACCCAUGUGAGCCUGAUGCUUAUG [Ex NG1 #55] (Eterna round: R96, puzzle: Exclusion NG 1) | – | – | – | – | – | 12.7
23 | AAUUAUUUAUGAGGAUAUUGUGGUGAAACACCACAAGAAGGCAUGAUACACAUGAGGAUCACCCAUGUGAGCCUGAUGCAUAUA [Ex NG1 #58] (Eterna round: R96, puzzle: Exclusion NG 1) | – | – | – | – | – | 13.5
24 | AAUUUACAUGAGGAUCACCCAUGUGAGGAUAUGAUACUAUGUACUUCGGUACAUAGUAUCAGAAGGCAUGUGAA [Ex1-3: 92] (puzzle: Exclusion 1) | – | – | – | 133 | – | –
25 | AAUUUACAUGAGGAUCACCCAUGUGAGGAUAUGGUUUCGCUGGCCGUAGCCAGUGGAACCAGAAGGCGCGUGAU [Mat - Exclusion 1 - JL Mod - D28] (Eterna round: R97, puzzle: Exclusion 1) | 195 | 84.3 | – | – | – | –
26 | ACAAAGGGAGUCAGGAUAUCGGACGUAAGUCAAGACGAGAAGGGACAUGAGGAUCACCCAUGUCAGCGGUGAAA [Exclusion 4 S1] (puzzle: Brourd's mod of Exclusion 4) | – | – | 42.5 | 18.7 | 17 | –
27 | ACAAAGGUAGGAUAUCGGACUAUGGACAUGAGGAUCACCCAUGUGCGUCCAGUGUCCAACCGAGAAGGACCCAAAA [Beinge] (puzzle: Exclusion 5) | – | – | 83.2 | 86.1 | 91.6 | –
28 | ACAAGAAUUUUGCUCGUAAAGUAGAAACGCGAGAGCGAGACAUGAGGAUCACCCAUGUAAAGGCAGUAGGUGGAGAU [JR_SV3TOV2_Sub027] (puzzle: Sensor v3, turn-off variant 2) | – | – | 49.3 | 50.9 | 46.1 | –
29 | ACAAGCAUUUAGUAAAUGGACAUGAGGAUCACCCAUGUGAGUCCGAAGAGAUAAGAUAUAUUGUCGGCUCGUCUUAU [AK-miRNA-r3-22] (Eterna round: R97, puzzle: Sensor, turn-off variant 1) | 55.9 | 94.8 | – | – | – | –
30 | ACAAGCUCUUUGCAACUUAGUUUUGUUGCUUCGUAGGUAACAUGAGGAUCACCCAUGUAAGAGUGAUGUCGUCUUAU [JR_SV3TOV2_Sub085] (puzzle: Sensor v3, turn-off variant 2) | – | – | 65.8 | 52.7 | 76.9 | –
31 | ACAAGCUUAAUCAGUAAGAACAUGAGGAUCACCCAUGUAAAUGAAAGGACUAUUGGGUUAUUUAAAGCUCGUCUUAU [JR_STOV1_Sub014] (Eterna round: R97, puzzle: Sensor, turn-off variant 1) | 52.1 | 52.8 | – | – | – | –
32 | ACAAGCUUAUUGCUCGGGUACAUGAGGAUCACCCAUGUUUGUGAUUAUAGAGAUUGUGUUGACGUGCGCUGCAGGUU [JR_SV3TOV1_Sub078] (puzzle: Sensor v3, turn-off variant 1) | – | – | 61.1 | 37.9 | 77 | –
